The labels stand for the following.
B1: Response regulator aspartate phosphatase H (Bacillus subtilis), Q59HN8 (parent)
chain: MSQAIPSSRVGVKINEWYKMIRQFSVPDAEILKAEVEQDIQQMEEDQDLLIYYSLMCFRHQLMLDYLEPGKTYGNRPTVTELLETIETPQKKLTGLLKYYSLFFRGMYEFDQKEYVEAIGYYREAEKELPFVSDDIEKAEFHFKVAEAYYHMKQTHVSMYHILQALDIYQNHPLYSIRTIQSLFVIAGNYDDFKHYDKALPHLEAALELAMDIQNDRFIAISLLNIANSYDRSGDDQMAVEHFQKAAKVSREKVPDLLPKVLFGLSWTLCKAGQTQKAFQFIEEGLDHITARSHKFYKELFLFLQAVYKETVDERKIHDLLSYFEKKNLHAYIEACARSAAAVFESSCHFEQAAAFYRKVLKAQEDILKGECLYAY
partner: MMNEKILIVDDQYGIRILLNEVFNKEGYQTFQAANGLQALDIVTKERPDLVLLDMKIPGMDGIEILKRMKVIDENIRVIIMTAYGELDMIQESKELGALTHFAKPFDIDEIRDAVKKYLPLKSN

In this experiment the parent is B1. Particulars: with sp0f_bacsu spo0F.
In the case of MSQAIPSSRVGVKINEWYKMIRQFSVPDAEILKAEVEQDIQQMEEDQDLAIYYSLMCFRHQLMLDYLEPGKTYGNRPTVTELLETIETPQKKLTGLLKYYSLFFRGMYEFDQKEYVEAIGYYREAEKELPFVSDDIEKAEFHFKVAEAYYHMKQTHVSMYHILQALDIYQNHPLYSIRTIQSLFVIAGNYDDFKHYDKALPHLEAALELAMDIQNDRFIAISLLNIANSYDRSGDDQMAVEHFQKAAKVSREKVPDLLPKVLFGLSWTLCKAGQTQKAFQFIEEGLDHITARSHKFYKELFLFLQAVYKETVDERKIHDLLSYFEKKNLHAYIEACARSAAAVFESSCHFEQAAAFYRKVLKAQEDILKGECLYAY [L50A], the “effect of a mutation on the interaction” value is on record as “disrupting interaction”.

As for MSQAIPSSRVGVKINEWYKMIRQFSVPDAEILKAEVEQDIQQMEEDQDLLIYYSLMCARHQLMLDYLEPGKTYGNRPTVTELLETIETPQKKLTGLLKYYSLFFRGMYEFDQKEYVEAIGYYREAEKELPFVSDDIEKAEFHFKVAEAYYHMKQTHVSMYHILQALDIYQNHPLYSIRTIQSLFVIAGNYDDFKHYDKALPHLEAALELAMDIQNDRFIAISLLNIANSYDRSGDDQMAVEHFQKAAKVSREKVPDLLPKVLFGLSWTLCKAGQTQKAFQFIEEGLDHITARSHKFYKELFLFLQAVYKETVDERKIHDLLSYFEKKNLHAYIEACARSAAAVFESSCHFEQAAAFYRKVLKAQEDILKGECLYAY [F58A], the “effect of a mutation on the interaction” value is “decreasing interaction”. For the variant MSQAIPSSRVGVKINEWYKMIRQFSVPDAEILKAEVEQDIQQMEEDNDLLIYYSLMCFRHQLMLDYLEPGKTYGNRPTVTELLETIETPQKKLTGLLKYYSLFFRGMYEFDQKEYVEAIGYYREAEKELPFVSDDIEKAEFHFKVAEAYYHMKQTHVSMYHILQALDIYQNHPLYSIRTIQSLFVIAGNYDDFKHYDKALPHLEAALELAMDIQNDRFIAISLLNIANSYDRSGDDQMAVEHFQKAAKVSREKVPDLLPKVLFGLSWTLCKAGQTQKAFQFIEEGLDHITARSHKFYKELFLFLQAVYKETVDERKIHDLLSYFEKKNLHAYIEACARSAAAVFESSCHFEQAAAFYRKVLKAQEDILKGECLYAY [Q47N], the “effect of a mutation on the interaction” value is reported as “disrupting interaction”. Then MSQAIPSSRVGVKINEWYKMIRQFSVPDAEILKAEVEQDIQQMEEDQDLLIYYSLMCFRHQLMLDYLEPGKTYGNRPTVTELLETIETPQKKLTGLLKYYSLFFRGMYEFDQKEYVEAIGYYREAEKELPFVSDDIEKAEFHFKVAEAYYHMKQTHVSMYHILQALDIYQNHPLASIRTIQSLFVIAGNYDDFKHYDKALPHLEAALELAMDIQNDRFIAISLLNIANSYDRSGDDQMAVEHFQKAAKVSREKVPDLLPKVLFGLSWTLCKAGQTQKAFQFIEEGLDHITARSHKFYKELFLFLQAVYKETVDERKIHDLLSYFEKKNLHAYIEACARSAAAVFESSCHFEQAAAFYRKVLKAQEDILKGECLYAY [Y175A], with “disrupting interaction”; and MSQAIPSSRVGVKINEWYKMIRQFSVPDAEILKAEVEQDIQQMEEDQDLLIYYSLMCFRHQLMLDYLEPGKTYGNRPTVTELLETIETPQKKLTGLLKYYSLFFRGMYEFDQKEYVEAIGYYREAEKELPFVSDDIAKAEFHFKVAEAYYHMKQTHVSMYHILQALDIYQNHPLYSIRTIQSLFVIAGNYDDFKHYDKALPHLEAALELAMDIQNDRFIAISLLNIANSYDRSGDDQMAVEHFQKAAKVSREKVPDLLPKVLFGLSWTLCKAGQTQKAFQFIEEGLDHITARSHKFYKELFLFLQAVYKETVDERKIHDLLSYFEKKNLHAYIEACARSAAAVFESSCHFEQAAAFYRKVLKAQEDILKGECLYAY [E137A], with “disrupting interaction”. With MSQAIPSSRVGVKINEWYKMIRQFSVPDAEILKAEVEQDIQQMEEDQDLLIYYSLMCFRHQLMLDYLEPGKTYGNRPTVTELLETIETPQKKLTGLLKYYSLFFRGMYEFDQKEYVEAIGYYREAEKELPFVSADIEKAEFHFKVAEAYYHMKQTHVSMYHILQALDIYQNHPLYSIRTIQSLFVIAGNYDDFKHYDKALPHLEAALELAMDIQNDRFIAISLLNIANSYDRSGDDQMAVEHFQKAAKVSREKVPDLLPKVLFGLSWTLCKAGQTQKAFQFIEEGLDHITARSHKFYKELFLFLQAVYKETVDERKIHDLLSYFEKKNLHAYIEACARSAAAVFESSCHFEQAAAFYRKVLKAQEDILKGECLYAY [D134A], the “effect of a mutation on the interaction” value is recorded as “decreasing interaction”.

These data come from IntAct's records for PubMed 21346797.
